For assay [1], the target named is T1, Myc-tagged CARD-14 (full-length CARD-14 with C-terminal Myc epitopes, pCMV-Tag 5A) (human, UniProt Q9BXL6 1-1004).
T1 construct: Expressed in 293T cells (co-immunoprecipitation, Bcl-10 phosphorylation) and Rat-1 cells (co-localization)
T1 sequence: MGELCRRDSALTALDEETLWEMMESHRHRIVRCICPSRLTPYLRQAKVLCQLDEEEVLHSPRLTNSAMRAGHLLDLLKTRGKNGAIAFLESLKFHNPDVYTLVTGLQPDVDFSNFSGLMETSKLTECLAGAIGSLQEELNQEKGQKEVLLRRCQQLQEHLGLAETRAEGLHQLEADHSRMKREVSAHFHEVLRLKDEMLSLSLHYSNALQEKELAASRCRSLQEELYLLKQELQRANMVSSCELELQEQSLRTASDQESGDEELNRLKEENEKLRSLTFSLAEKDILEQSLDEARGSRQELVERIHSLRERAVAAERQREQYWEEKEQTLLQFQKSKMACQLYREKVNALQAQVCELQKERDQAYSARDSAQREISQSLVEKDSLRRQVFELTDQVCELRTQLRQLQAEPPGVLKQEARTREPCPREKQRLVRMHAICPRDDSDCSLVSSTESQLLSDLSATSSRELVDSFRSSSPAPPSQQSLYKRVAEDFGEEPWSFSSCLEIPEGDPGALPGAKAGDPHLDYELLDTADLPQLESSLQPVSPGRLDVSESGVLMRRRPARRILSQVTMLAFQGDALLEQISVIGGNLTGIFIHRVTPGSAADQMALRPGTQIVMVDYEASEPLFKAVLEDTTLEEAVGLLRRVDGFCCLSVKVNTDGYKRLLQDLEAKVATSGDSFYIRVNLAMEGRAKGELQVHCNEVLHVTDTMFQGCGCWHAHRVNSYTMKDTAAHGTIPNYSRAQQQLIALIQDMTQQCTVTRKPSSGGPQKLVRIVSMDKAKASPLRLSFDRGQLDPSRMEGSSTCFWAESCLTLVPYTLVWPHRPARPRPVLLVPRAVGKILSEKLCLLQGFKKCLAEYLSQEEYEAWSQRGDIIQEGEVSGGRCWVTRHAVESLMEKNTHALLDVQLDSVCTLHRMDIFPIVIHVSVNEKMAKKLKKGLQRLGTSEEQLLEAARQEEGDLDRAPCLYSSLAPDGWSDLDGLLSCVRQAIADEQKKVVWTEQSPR
Put plainly: co-localization by immunofluorescence in Rat-1 cells. The procedure: To further confirm the interaction between CARD-14 and Bcl-10, co-localization experiments were performed with full-length CARD-14. In these studies, Rat-1 cells were transfected in PDL-coated glass chamber slides (BioCoat, Becton-Dickinson Labware) with plasmids expressing HA-tagged Bcl10 and Myc-tagged CARD-14 using FuGENE-6 (Roche Molecular Biochemicals) for 20 hours. Cells were fixed in 4% paraformaldehyde, permeabilized and blocked in buffer containing 0.4% Triton X-100, and sequentially incubated with primary and secondary antibodies: rabbit anti-HA polyclonal Y-11 (Santa Cruz Biotechnology), mouse anti-Myc monoclonal 9E10 (Oncogene Research Products), Alexa-488 Goat anti-mouse IgG (Molecular Probes) and Alexa-594 Goat anti-rabbit IgG (Molecular Probes). No cross-reactivity was observed between any of the antibodies. Images were acquired using a Nikon T200 microscope with a 60× oil objective and an Orca100 digital camera (Hammamatsu, Inc.) driven by MetaMorph software (Universal Imaging Corp.). Final images were prepared using Adobe PhotoShop.

Assay [2] concerns the target T2, CARD-14 protein labeled with 35S-methionine (human, UniProt Q9BXL6 1-1004, limits assumed, labeled with 35S-methionine).
T2 construct: also called radiolabeled CARD-14
T2 sequence: T1 sequence
In words: GST pull-down on glutathione-sepharose, autoradiography. How it is done:
The interaction of radiolabeled CARD-14 with GST-Bcl-10 in vitro was also examined. Bcl-10 wild type and L41R mutant were expressed in DH5 alpha bacteria as GST fusion proteins and equal amounts of protein were immobilized on glutathione-sepharose (Amersham-Pharmacia). An equal amount of CARD-14 protein, labeled with ^35S-methionine, was incubated with the protein bound sepharose beads in 100 μl of binding buffer (50 mM Tris-Cl pH 7.6, 120 mM NaCl, 0.5% Brij and protease inhibitors) for three hours. The beads were washed four times with the same buffer and boiled in SDS sample buffer. The proteins were then resolved on a 10% SDS gel and visualized by autoradiography.

Where a chain is given by its changes, count along the chain named. Names and notes keep the numbering of the source.

2 molecules from patent US6936690 (Takeda / Millennium, dated 2005) can be followed below.

B1: HA-tagged Bcl10 (other, UniProt O95999 1-233, looked up, not shown: small tags and cut ends)
chain: MEPTAPSLTEEDLTEVKKDALENLRVYLCEKIIAERHFDHLRAKKILSREDTEEISCRTSSRKRAGKLLDYLQENPKGLDTLVESIRREKTQNFLIQKITDEVLKLRNIKLEHLKGLKCSSCEPFPDGATNNLSRSNSDESNFSEKLRASTVMYHPEGESSTTPFFSTNSSLNLPVLEVGRTENTIFSSTTLPRPGDPGAPPLPPDLQLEEEGTCANSSEMFLPLRSRTVSRQ
notes: Expressed in Rat-1 cells (co-localization) and 293T cells (phosphorylation); also called HA-Bcl-10
Take B1: the binding result in assay [1] is listed as “binds”.

B2: GST-Bcl-10 L41R mutant (other, UniProt O95999 1-233, looked up)
chain: B1 chain with L41R
notes: Expressed in DH5 alpha bacteria and immobilized on glutathione-sepharose; also called variant of Bcl-10 with a point mutation (L41R); not shown: GST fusion partner
For the molecule B2, in assay [2], the binding result is given as “no binding”.
